Measured values from PMC12609122.

What was measured:
[1] = target: Tha4 A65CT78C (E10 background) (Pisum sativum); experiment: cross-linking; radiolabelled double-Cys Tha4 integrated into NEM-treated pea thylakoids; 0.25 mM BMOE, 10 min; four conditions: with or without precursor (V-20F)tOE17 (1.5 uM), with PMF (light, 15 °C) or without (dark, on ice; 0.5 uM nigericin and 1 uM valinomycin); SDS-PAGE and fluorography; result as told over the conditions
[2] = target: Tha4 E10A P56CP58C (Pisum sativum); experiment: as above
[3] = target: Tha4 V21CG23C (E10 background) (Pisum sativum); experiment: as above
[4] = target: Tha4 E10D K39CQ43C (Pisum sativum); experiment: as above
[5] = target: Tha4 E10A V8CP9C (Pisum sativum); experiment: as above
[6] = target: Tha4 E10D P56CP58C (Pisum sativum); experiment: as above
[7] = target: Tha4 V8CP9C (E10 background) (Pisum sativum); experiment: cross-linking; as a1, the samples with the functional precursor (V-20F)tOE17 (1.5 uM), with or without PMF
[8] = target: Tha4 V8CP9C (E10 background) (Pisum sativum); experiment: cross-linking; radiolabelled double-Cys Tha4 integrated into NEM-treated pea thylakoids; 0.25 mM BMOE, 10 min; four conditions: with or without precursor (V-20F)tOE17 (1.5 uM), with PMF (light, 15 °C) or without (dark, on ice; 0.5 uM nigericin and 1 uM valinomycin); SDS-PAGE and fluorography; result as told over the conditions
[9] = target: Tha4 E10A V21CG23C (Pisum sativum); experiment: as above
[10] = target: Tha4 V13CI14C (E10 background) (Pisum sativum); experiment: as above
[11] = target: Tha4 E10A A18CL20C (Pisum sativum); experiment: cross-linking; as a1, the sample with the functional precursor (V-20F)tOE17 and with PMF (light)
[12] = target: Tha4 E10D V8CP9C (Pisum sativum); experiment: cross-linking; radiolabelled double-Cys Tha4 integrated into NEM-treated pea thylakoids; 0.25 mM BMOE, 10 min; four conditions: with or without precursor (V-20F)tOE17 (1.5 uM), with PMF (light, 15 °C) or without (dark, on ice; 0.5 uM nigericin and 1 uM valinomycin); SDS-PAGE and fluorography; result as told over the conditions
[13] = target: Tha4 P56CP58C (E10 background) (Pisum sativum); experiment: as above
[14] = target: Tha4 E10A F41CA45C (Pisum sativum); experiment: as above

Tha4 A65CT78C (E10 background) (natural protein)
stoichiometry N [1]: < 5

Tha4 E10A P56CP58C (natural protein)
stoichiometry N [2]: < 4

Tha4 V21CG23C (E10 background) (natural protein)
bands in the oligomer ladder [3]: < 6 bands

Tha4 E10D K39CQ43C (natural protein)
stoichiometry N [4]: < 4

Tha4 E10A V8CP9C (natural protein)
stoichiometry N [5]: < 6

Tha4 E10D P56CP58C (natural protein)
stoichiometry N [6]: < 4

Tha4 V8CP9C (E10 background) (natural protein)
stoichiometry N [7]: < 6
stoichiometry N [8]: < 4

Tha4 E10A V21CG23C (natural protein)
stoichiometry N [9]: < 10

Tha4 V13CI14C (E10 background) (natural protein)
stoichiometry N [10]: < 6

Tha4 E10A A18CL20C (natural protein)
stoichiometry N [11]: < 4

Tha4 E10D V8CP9C (natural protein)
stoichiometry N [12]: < 6

Tha4 P56CP58C (E10 background) (natural protein)
stoichiometry N [13]: < 4

Tha4 E10A F41CA45C (natural protein)
stoichiometry N [14]: < 6
